± gives the half width of the 95% confidence interval.
Assay: folding stability dG unfold (combined trypsin and chymotrypsin); higher = more stable
Method in brief: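 Designed mini-proteins with no cysteine and under 80 residues were kept only if AlphaFold2 dimer inter-PAE was above 15. In a PA-tagged cDNA display construct, they were digested with trypsin and chymotrypsin and then sequenced. K50 was inferred by Bayesian fitting of counts, and unfolding free energy was derived per protease or combined against a sequence-predicted unfolded-state K50 and a shared folded-state K50.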

Q: With “SAMTLRIELTKEELEKLIKELKPGDEVELEIEVNGRTYRIRAKITRIERVDDKVYIEVELEIEELPEEESAG [r14_335_TrROS_Hall]” as the sequence, how does the “folding stability dG unfold” value read?
A: Its value is 4.63 ± 0.13 kcal/mol.

Q: With “SAGGSAGGSAGGLEEIRENGEALVFYPDGRVYRVDLKTGKITPPPGFKPENIVRVVFVKKSAGGSAGGSAGG [r7_566_TrMRF]” as the sequence, how does the “folding stability dG unfold” value read?
A: Its value is 0.301 ± 0.076 kcal/mol.

Q: Which “folding stability dG unfold” value does the source give for “SAGGSAGGSSPDWSVKKSTVTVTITFPEEKYFEPETKKEVAKRPVITIEIEIEVVETLPASLISAGGSAGGS [r12_600_JUSTAS]” here?
A: Its value is 1.63 ± 0.19 kcal/mol.

Q: For “SAGGSAGGSAGGRKLAIKIEIEEVKTETRIRPDGKTETRTELRIKIEIRPVPHPDDPELLSAGGSAGGSAGG [r7_523_TrROS_Hall]”, which “folding stability dG unfold” value is on record?
A: Its value is 2.34 ± 0.25 kcal/mol.

Q: Which “folding stability dG unfold” value does the source give for “SMKKILIIVPKEMSEEEVEALVKELLEKLGLPEGAEVEILTEEELEKNPELKKKLEEAEKKGADLVIIIPSA [r9_1147_TrROS_Hall]” here?
A: The value was 3.12 ± 0.32 kcal/mol.

Q: For “SAGGSAGGSAGHMVKVKITKSKGGSSLPLEEKEIELDIDEEKLEELKEEAKKKGYTVEIESAGGSAGGSAGG [r17_18_JUSTAS]”, which “folding stability dG unfold” value is on record?
A: Its value is -0.0397 ± 0.26 kcal/mol.

Q: For “SAGGSAGGSAGGSLAFEGSFRFRKLKLTFKRKLTRTRPDGEPEEFEEELELEVEVVLPVSAGGSAGGSAGGS [r4_418_TrMRF]”, which “folding stability dG unfold” value is on record?
A: Its value is 4.21 ± 0.4 kcal/mol.

Q: For “SAGGSAGGSAWKKFMLEFPDGRPFMIEIDPDEPGRVKIYPPGNGKEEEIPPDDLKDLKITASAGGSAGGSAG [r3_451_TrROS]”, which “folding stability dG unfold” value is on record?
A: The value was 0.507 ± 0.33 kcal/mol.

Q: Which “folding stability dG unfold” value does the source give for “SAGMNLKIEVSVTPQEFELVEKDEEGNLIKPVKQKATVVTTTTTLPDGTVTTTRSLFLDGELVATSTGSAGG [r19_44_JUSTAS]” here?
A: The value was 0.972 ± 0.098 kcal/mol.

Q: For “SAMKLVTLEDGTVIETENLSLEEIKERFGGGSISVSDVPPSPAFRVESEEEREALEKEVGPGFVVVEEGSAG [r14_445_JUSTAS]”, which “folding stability dG unfold” value is on record?
A: Its value is 0.414 ± 0.082 kcal/mol.

Q: Which “folding stability dG unfold” value does the source give for “SAGGSAGGSAKPRVKIVEVDEEKKRVLVKTEDGEVVELEGLTPEQIEELAKALGADEVELVSAGGSAGGSAG [r3_78_TrROS_Hall]” here?
A: The value was 1.12 ± 0.17 kcal/mol.

Q: For “SAGGMPKPVTLPAVIELGAGPAIAVEEFPETGKLVFVFPPTHRIFVFDPNGKLVAEVDVPPDVPVSAVSAGG [r13_507_TrMRF]”, which “folding stability dG unfold” value is on record?
A: Its value is 0.931 ± 0.15 kcal/mol.

Q: With “SPNWKIVEITEMERTDGRVTIKIKIKVPDGRIYIFMPNGKIIEEVPLGDDVELTITFPPNNWPIYIFVLDSA [r9_917_TrROS]” as the sequence, how does the “folding stability dG unfold” value read?
A: The value was 4.48 ± 0.18 kcal/mol.

Q: With “PKEIIEFAKKNGFKVKIEPVKVGSEEKAKKLAEEIKKKNNGKVFIIKNPKTGEAVYRIEIYPLKVPKNKKLS [r1_179_TrMRF]” as the sequence, how does the “folding stability dG unfold” value read?
A: Its value is 1.9 ± 0.43 kcal/mol.

Q: Which “folding stability dG unfold” value does the source give for “SAGGSAGKNKPFPLPILIEAHPDDPEEAAERLKAELEALFPGPIKVEIVEVDPEKGIITAIVTVDGSAGGSA [r15_1024_TrMRF]” here?
A: The value was 1.31 ± 0.096 kcal/mol.

Q: Which “folding stability dG unfold” value does the source give for “SAGGSSITVTDETTVEVSPTGSPTGPPVATVTTTTSTTTTTYYDPKTGTSTETTTTTTTTTTSTGASAGGSA [r2_269_JUSTAS]” here?
A: The value was 0.382 ± 0.15 kcal/mol.

Q: With “SSSSMKTITLEKKITSPEEAEALREELLKKGYEVEVKVYPHPDSYIAKITVTIEVPPPPLSPTNPSALLKSA [r9_863_JUSTAS]” as the sequence, how does the “folding stability dG unfold” value read?
A: The value was 0.967 ± 0.22 kcal/mol.

Q: Which “folding stability dG unfold” value does the source give for “SASMTYTVTVTVSVKNPDGTPIGTIPITRTMNLDEAKVIVEKEIKKTVDELFPGKPANVTVDTTVTPLPSAG [r14_570_JUSTAS]” here?
A: The value was 0.899 ± 0.27 kcal/mol.

Q: With “SMYRIRLPSNKVFTIDVPPDGTVEITLPNGKKLTLKLESEEDILALAEILSKLFPDDPAEIEPIPLEYYRSA [r9_1206_TrMRF]” as the sequence, how does the “folding stability dG unfold” value read?
A: The value was 1.4 ± 0.092 kcal/mol.

Q: With “SAGGSAGGSAGKKTYKLVIPVKPDKTVEEIAEEVKKLLGPGSKVEVEEKEDGFATVYVESSAGGSAGGSAGG [r17_20_TrMRF]” as the sequence, how does the “folding stability dG unfold” value read?
A: The value was 0.555 ± 0.097 kcal/mol.

Q: With “SAGGSAGGSAGAPPEGAKPVEEETVPIEIQMRNDDDGKPIMPIKFEVRVYKFPDGIFISISAGGSAGGSAGG [r11_415_TrROS]” as the sequence, how does the “folding stability dG unfold” value read?
A: The value was 2.45 ± 0.21 kcal/mol.

Q: Which “folding stability dG unfold” value does the source give for “SMTISIPGGITITIEPKPNSYTLTVSFPDGSTVTRPVDPSDLTSAIKAVIREALRRADPNITEEEIEKLLSA [r9_634_JUSTAS]” here?
A: The value was over 6 kcal/mol.

Q: Which “folding stability dG unfold” value does the source give for “SAGGSAGGSGIEELKKAGFEIVRIERKEDGTLRLTVRNKETEETKTIEITLPEAEVELVEPPESAGGSAGGS [r12_166_TrROS_Hall]” here?
A: The value was 3.57 ± 0.093 kcal/mol.

Q: For “SAGGSAGGSIKPGQKVKIEIKVEEVDGKLVITAKVYNKDGKLIYEAEIVIENGKIKEVKITPPSAGGSAGGS [r12_264_TrROS_Hall]”, which “folding stability dG unfold” value is on record?
A: The value was 2.9 ± 0.34 kcal/mol.

Q: For “SAGGKTIMHMYMNPNGWFIRAKIKLDPDGKWKITDVEIYPMEMKYEDPNGKPREMPMFMIKIRIKPDSAGGS [r8_270_TrROS]”, which “folding stability dG unfold” value is on record?
A: Its value is 3.78 ± 0.092 kcal/mol.

Q: With “SAGGSAGGNWKVEIWPNGEQQEYTIDEIKKQLKNDIPPNYMIRVKGSGKWIPVRELLKEAGIPLSAGGSAGG [r6_937_TrROS]” as the sequence, how does the “folding stability dG unfold” value read?
A: The value was 0.691 ± 0.076 kcal/mol.

Q: For “SAGGSSSSLIGEIKLPSNVTIKIERSSKGVRTAVVTFPETGKVVTLPLDPNVSIEEIIEKVKEIVEKKSAGG [r13_624_JUSTAS]”, which “folding stability dG unfold” value is on record?
A: Its value is 1.71 ± 0.066 kcal/mol.

Q: Which “folding stability dG unfold” value does the source give for “SAGGSMVVTVSTDSTSEPTTVITITIPPELGNLTDEEKKAIAEEIAKKYPNTKFTFTPTTITITRKSAGGSA [r2_256_JUSTAS]” here?
A: Its value is 2.37 ± 0.23 kcal/mol.

Q: Which “folding stability dG unfold” value does the source give for “SAGMPVEIPLVIRLTRYRDLPDGPELAEVRELPLPLRADPSELDNPELLAFIREALEKLPDEIREVEIASAG [r5_849_TrMRF]” here?
A: Its value is 0.479 ± 0.17 kcal/mol.

Q: With “SAGGPLVVEAKVEGDTVTIRLPNGEEFTAHPDATLFLPNGERVFFEPVSDDVVIATVVPLPEDAEFPSAGGS [r16_277_TrMRF]” as the sequence, how does the “folding stability dG unfold” value read?
A: Its value is 0.212 ± 0.085 kcal/mol.

Q: Which “folding stability dG unfold” value does the source give for “SFEIEILDVDPDGWIVITIRYPSPDGKPLTPEEMEEIAEEIALELFPQFPDFKVTIEHDPESGTITIVIRSA [r9_485_TrROS]” here?
A: Its value is 4.15 ± 0.43 kcal/mol.

Q: For “SAGGSAGGSAGKKKIKLLIFDKKTNKLYVVEVELTKDGKIKITKIKEIYEVKPGEKLKLLSAGGSAGGSAGG [r11_750_TrROS_Hall]”, which “folding stability dG unfold” value is on record?
A: Its value is 1.19 ± 0.25 kcal/mol.
